B1: 383-huIgG2m1 (antibody)
heavy: not shown
light: DIQMTQSPSSVSASVGDRVTITCRASQGIYSWLAWYQQKPGKAPNLLIYTASTLQSGVPSRFSGSGSGTDFTLTISSLQPEDFATYYCQQANIFPLTFGGGTKVEIKRTVAAPSVFIFPPSDEQLKSGTASVVCLLNNFYPREAKVQWKVDNALQSGNSQESVTEQDSKDSTYSLSSTLTLSKADYEKHKVYACEVTHQGLSSPVTKSFNRGEC
B2: 383-huIgG2m44 (antibody)
heavy: not shown
light: B1 light
B3: 383-huIgG4m20 (antibody)
heavy: not shown
light: B1 light
B4: 383-huIgG2m20 (antibody)
heavy: not shown
light: B1 light
notes: also called 383-G2m20; 383-IghuG2m20
B5: 383-huIgG1m48 (antibody)
heavy: not shown
light: B1 light
B6: 383-huIgG2G4 (antibody)
heavy: not shown
light: B1 light
B7: 383-huIgG2m40 (antibody)
heavy: not shown
light: B1 light
notes: also called 383-G2m40; 383-IghuG2m40
B8: 383-huIgG4SP (antibody)
heavy chain: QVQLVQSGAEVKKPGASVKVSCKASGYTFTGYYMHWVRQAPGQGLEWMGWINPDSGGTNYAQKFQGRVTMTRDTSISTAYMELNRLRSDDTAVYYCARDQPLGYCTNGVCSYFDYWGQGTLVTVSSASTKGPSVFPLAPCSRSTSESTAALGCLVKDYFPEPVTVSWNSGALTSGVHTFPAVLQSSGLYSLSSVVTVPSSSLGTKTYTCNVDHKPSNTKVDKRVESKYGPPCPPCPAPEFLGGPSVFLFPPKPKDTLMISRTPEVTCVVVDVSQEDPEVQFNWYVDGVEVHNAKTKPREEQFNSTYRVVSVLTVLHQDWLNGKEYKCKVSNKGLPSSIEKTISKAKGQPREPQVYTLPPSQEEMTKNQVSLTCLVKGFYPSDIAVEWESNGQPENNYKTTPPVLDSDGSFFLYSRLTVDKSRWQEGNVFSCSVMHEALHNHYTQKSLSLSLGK
light chain: B1 light
notes: anti-CD40 antibody 383 on a human IgG4 S228P constant region
B9: 383-huIgG1mAA (antibody)
heavy: not shown
light: B1 light
B10: 383-huIgG1m40 (antibody)
heavy: not shown
light: B1 light
B11: 383-huIgG4m42 (antibody)
heavy: not shown
light: B1 light
B12: 383-huIgG2mAA (antibody)
heavy: not shown
light: B1 light
B13: 383-huIgG4m41 (antibody)
heavy: not shown
light: B1 light
B14: 383-huIgG1 N297A (antibody)
heavy: not shown
light: B1 light
notes: the entry already carries the change

Each binder was assayed against T1, human FcγRIII (human, UniProt P08637 17-254) (assay: FACS on CHO cells expressing human FcγRIIIA (MFI)).
T1 construct: whole, on cells; also called FcγRIIIA; CD16a
T1 sequence (P08637 17-254): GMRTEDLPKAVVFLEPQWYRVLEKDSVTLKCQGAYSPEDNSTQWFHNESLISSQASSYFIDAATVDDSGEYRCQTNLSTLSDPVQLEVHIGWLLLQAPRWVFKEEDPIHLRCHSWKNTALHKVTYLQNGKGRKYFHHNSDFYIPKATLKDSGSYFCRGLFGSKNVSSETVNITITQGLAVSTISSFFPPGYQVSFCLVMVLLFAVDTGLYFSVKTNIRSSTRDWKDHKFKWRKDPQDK
Method: (§1) For FACS analysis of the IgG mutants' binding to different FcγRs, FcγR overexpressing CHO cells were harvested using trypsin-EDTA and were suspended in cold staining buffer (3% BSA in PBS). Test IgG mutants, which were diluted in staining buffer, were added into the cells. The mixture was incubated at 4° C. for 2 hours, and then washed twice with cold staining buffer and re-suspended in PE-labeled anti-human IgG followed by incubation at 4° C. for 2 hours. The mixture was washed twice with staining buffer and re-suspended in 2% PFA in PBS for FACS.
B1: no binding (tested: 30 µg/mL). B2: no binding (tested: 30 µg/mL). B3: no binding (tested: 30 µg/mL). B4: no binding (tested: 30 µg/mL). B5: no binding (tested: 30 µg/mL). B6: no binding (tested: 30 µg/mL). B7: no binding (tested: 30 µg/mL). B8: no binding (tested: 30 µg/mL). B9: no binding (tested: 30 µg/mL). B10: no binding (tested: 30 µg/mL). B11: no binding (tested: 30 µg/mL). B12: no binding (tested: 30 µg/mL). B13: no binding (tested: 30 µg/mL). B14: no binding (tested: 30 µg/mL).

What follows are binders tested against T2, human FcγRIIB (human, UniProt P31994 43-310) (assay: FACS on CHO cells expressing human FcγRIIB (MFI)).
T2 construct: whole, on cells; also called CD32b; FcγR2B
T2 sequence (looked up): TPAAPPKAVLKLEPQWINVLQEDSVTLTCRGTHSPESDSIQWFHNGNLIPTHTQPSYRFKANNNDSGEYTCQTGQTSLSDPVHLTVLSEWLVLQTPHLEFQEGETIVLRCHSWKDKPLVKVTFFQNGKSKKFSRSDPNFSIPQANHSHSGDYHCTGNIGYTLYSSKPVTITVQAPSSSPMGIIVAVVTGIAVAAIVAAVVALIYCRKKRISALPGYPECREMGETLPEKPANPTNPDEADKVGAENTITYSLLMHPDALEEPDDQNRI
Method: as §1
B1: no binding (tested: 30 µg/mL). B2: binds. B3: no binding (tested: 30 µg/mL). B4: binds. B5: binds. B6: binds. B7: no binding (tested: 30 µg/mL). B8: binds. B9: no binding (tested: 30 µg/mL). B10: no binding (tested: 30 µg/mL). B11: no binding (tested: 30 µg/mL). B12: binds. B13: no binding (tested: 30 µg/mL). B14: binds.

Each binder was assayed against T3, human FcγRI (human, UniProt P12314 16-374) (assay: FACS on CHO cells expressing human FcγRI (MFI)).
T3 construct: whole, on cells; also called CD64
T3 sequence (P12314 16-374): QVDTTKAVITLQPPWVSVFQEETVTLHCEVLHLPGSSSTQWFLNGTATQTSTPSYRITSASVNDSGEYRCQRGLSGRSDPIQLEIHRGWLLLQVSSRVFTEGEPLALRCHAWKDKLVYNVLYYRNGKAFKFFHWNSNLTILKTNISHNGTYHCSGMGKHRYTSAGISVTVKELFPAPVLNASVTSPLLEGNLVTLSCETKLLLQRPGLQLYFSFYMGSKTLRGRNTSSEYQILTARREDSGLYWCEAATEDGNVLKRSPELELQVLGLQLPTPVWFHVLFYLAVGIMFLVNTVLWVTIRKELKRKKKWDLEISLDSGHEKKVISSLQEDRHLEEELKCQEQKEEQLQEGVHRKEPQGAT
Method: as §1
B1: no binding (tested: 30 µg/mL). B2: no binding (tested: 30 µg/mL). B3: no binding (tested: 30 µg/mL). B4: no binding (tested: 30 µg/mL). B5: binds. B6: no binding (tested: 30 µg/mL). B7: no binding (tested: 30 µg/mL). B8: binds. B9: no binding (tested: 30 µg/mL). B10: no binding (tested: 30 µg/mL). B11: no binding (tested: 30 µg/mL). B12: no binding (tested: 30 µg/mL). B13: no binding (tested: 30 µg/mL). B14: binds.

— patent US20210301029A1 (LYVGEN BIOPHARMA, published 2021)
